Laboratory results as given in the supplement of paper PMC5998384.

Tests used:
HeLa Kyoto [1] = experiment: melting temperature (median over replicates), in situ; higher = more thermally stable
HeLa Kyoto [2] = experiment: solubility change mitosis vs G1/S (difference of NP-40 vs SDS log2 ratios) (log2 ratio difference); higher = more soluble in mitosis
HeLa Kyoto [3] = experiment: solubility in G1/S (NP-40 vs SDS abundance) (log2 ratio); higher = more soluble; conditions: cell cycle stage: G1/S
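Throughout, for melting temperature (median over replicates), in situ: HeLa Kyoto cells synchronized by double thymidine or nocodazole block, proteins quantified by TMT10plex mass spectrometry, three independent biological replicates.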
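Throughout, for solubility change mitosis vs G1/S (difference of NP-40 vs SDS log2 ratios): synchronized HeLa Kyoto cells (double thymidine block for G1/S, nocodazole release for mitosis), protein amounts in NP-40 versus SDS lysates quantified by mass spectrometry, three biological replicates.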
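Throughout, for solubility in G1/S (NP-40 vs SDS abundance): HeLa Kyoto cells arrested at G1/S by double thymidine block, proteins quantified by TMT10plex mass spectrometry in mild NP-40 versus SDS extracts, three biological replicates.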

Chain of HAUS7 (chain, as listed by the source): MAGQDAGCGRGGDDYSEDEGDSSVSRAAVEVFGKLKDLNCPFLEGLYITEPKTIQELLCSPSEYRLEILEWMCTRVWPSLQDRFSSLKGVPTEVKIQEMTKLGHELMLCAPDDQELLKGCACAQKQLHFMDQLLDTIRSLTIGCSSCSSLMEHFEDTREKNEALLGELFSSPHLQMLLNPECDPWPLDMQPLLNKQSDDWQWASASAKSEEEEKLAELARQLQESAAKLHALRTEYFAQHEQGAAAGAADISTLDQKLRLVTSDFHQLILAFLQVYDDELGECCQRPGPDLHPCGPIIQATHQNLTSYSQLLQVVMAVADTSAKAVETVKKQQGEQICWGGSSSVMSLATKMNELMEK

Row | Substance | melting temperature (HeLa Kyoto [1]; cell cycle stage: G1/S) [°C] | melting temperature (HeLa Kyoto [1]; cell cycle stage: mitosis) [°C] | solubility change mitosis (log2) (HeLa Kyoto [2]) | solubility in G1/S (log2) (HeLa Kyoto [3])
1 | MKVLLLKDAKEDDCGQDPYIRELGLYGLEATLIPVLSFEFLSLPSFSEKLSHPEDYGGLIFTSPRAVEAAELCLEQNNKTEVWERSLKEKWNAKSVYVVGNATASLVSKIGLDTEGETCGNAEKLAEYICSRESSALPLLFPCGNLKREILPKALKDKGIAMESITVYQTVAHPGIQGNLNSYYSQQGVPASITFFSPSGLTYSLKHIQELSGDNIDQIKFAAIGPTTARALAAQGLPVSCTAESPTPQALATGIRKALQPHGCC [UROS] | 51.5 | 52.4 | 0.14 | 0.234
2 | MRRAAGMEDFSAEEEESWYDQQDLEQDLHLAAELGKTLLERNKELEGSLQQMYSTNEEQVQEIEYLTKQLDTLRHVNEQHAKVYEQLDLTARDLELTNHRLVLESKAAQQKIHGLTETIERLQAQVEELQAQVEQLRGLEQLRVLREKRERRRTIHTFPCLKELCTSPRCKDAFRLHSSSLELGPRPLEQENERLQTLVGALRSQVSQERQRKERAEREYTAVLQEYSELERQLCEMEACRLRVQELEAELLELQQMKQAKTYLLGPDDHLAEALLAPLTQAPEADDPQPGRGDDLGAQDGVSSPAASPGHVVRKSCSDTALNAIVAKDPASRHAGNLTLHANSVRKRGMSILREVDEQYHALLEKYEELLSKCRQHGAGVRHAGVQTSRPISRDSSWRDLRGGEEGQGEVKAGEKSLSQHVEAVDKRLEQSQPEYKALFKEIFSRIQKTKADINATKVKTHSSK [CDR2L] | 52.5 | – | -0.204 | 0.549
3 | MVGEMETKEKPKPTPDYLMQLMNDKKLMSSLPNFCGIFNHLERLLDEEISRVRKDMYNDTLNGSTEKRSAELPDAVGPIVQLQEKLYVPVKEYPDFNFVGRILGPRGLTAKQLEAETGCKIMVRGKGSMRDKKKEEQNRGKPNWEHLNEDLHVLITVEDAQNRAEIKLKRAVEEVKKLLVPAAEGEDSLKKMQLMELAILNGTYRDANIKSPALAFSLAATAQAAPRIITGPAPVLPPAALRTPTPAGPTIMPLIRQIQTAVMPNGTPHPTAAIVPPGPEAGLIYTPYEYPYTLAPATSILEYPIEPSGVLGAVATKVRRHDMRVHPYQRIVTADRAATGN [QKI] | 50.2 | 49.8 | -0.0775 | 0.613
4 | MSTGPTAATGSNRRLQQTQNQVDEVVDIMRVNVDKVLERDQKLSELDDRADALQAGASQFETSAAKLKRKYWWKNCKMWAIGITVLVIFIIIIIVWVVSS [VAMP3] | – | 54.7 | -0.16 | 0.0764
5 | MLQGHSSVFQALLGTFFTWGMTAAGAALVFVFSSGQRRILDGSLGFAAGVMLAASYWSLLAPAVEMATSSGGFGAFAFFPVAVGFTLGAAFVYLADLLMPHLGAAEDPQTTLALNFGSTLMKKKSDPEGPALLFPESELSIRIGRAGLLSDKSENGEAYQRKKAAATGLPEGPAVPVPSRGNLAQPGGSSWRRIALLILAITIHNVPEGLAVGVGFGAIEKTASATFESARNLAIGIGIQNFPEGLAVSLPLRGAGFSTWRAFWYGQLSGMVEPLAGVFGAFAVVLAEPILPYALAFAAGAMVYVVMDDIIPEAQISGNGKLASWASILGFVVMMSLDVGLG [SLC39A11] | 56 | 51.9 | -0.134 | 0.00506
6 | MEEYHRHCDEVGFNAEEAHNIVKECVDGVLGGEDYNHNNINQWTASIVEQSLTHLVKLGKAYKYIVTCAVVQKSAYGFHTASSCFWDTTSDGTCTVRWENRTMNCIVNVFAIAIVL [DYNLT3] | 53.3 | 54.1 | -0.243 | -0.189
7 | MRPLLGLLLVFAGCTFALYLLSTRLPRGRRLGSTEEAGGRSLWFPSDLAELRELSEVLREYRKEHQAYVFLLFCGAYLYKQGFAIPGSSFLNVLAGALFGPWLGLLLCCVLTSVGATCCYLLSSIFGKQLVVSYFPDKVALLQRKVEENRNSLFFFLLFLRLFPMTPNWFLNLSAPILNIPIVQFFFSVLIGLIPYNFICVQTGSILSTLTSLDALFSWDTVFKLLAIAMVALIPGTLIKKFSQKHLQLNETSTANHIHSRKDT [TMEM41A] | 55.1 | 55.5 | -0.205 | 0.0255
8 | KANSL3 | – | 48.6 | 0.061 | 0.155
9 | HAUS7 | 50.7 | – | -0.0535 | 0.51
